Tests used:
[1] = target: His-tagged human recombinant corneodesmosin (His-CDSN) (human) (UniProt Q15517); assay: SPR
[2] = target: T1, His-tagged human recombinant corneodesmosin (His-CDSN) (human, UniProt Q15517 33-529); assay: SPR
T1 sequence (looked up): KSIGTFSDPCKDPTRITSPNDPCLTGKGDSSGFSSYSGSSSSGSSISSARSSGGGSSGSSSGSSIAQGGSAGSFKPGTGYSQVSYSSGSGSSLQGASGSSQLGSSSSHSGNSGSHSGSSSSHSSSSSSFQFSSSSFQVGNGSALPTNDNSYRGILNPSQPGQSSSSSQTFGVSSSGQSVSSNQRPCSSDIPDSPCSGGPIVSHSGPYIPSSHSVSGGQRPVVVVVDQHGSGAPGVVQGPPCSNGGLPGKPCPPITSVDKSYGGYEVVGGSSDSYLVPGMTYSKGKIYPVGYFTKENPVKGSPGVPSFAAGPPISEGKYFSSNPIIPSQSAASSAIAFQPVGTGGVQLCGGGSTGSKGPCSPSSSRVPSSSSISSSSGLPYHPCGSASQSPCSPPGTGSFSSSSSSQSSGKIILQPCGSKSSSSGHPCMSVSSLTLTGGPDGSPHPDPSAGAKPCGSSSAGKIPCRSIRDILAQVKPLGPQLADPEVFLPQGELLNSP

Molecule: recombinant FnBPB N2N3 subdomains with the sequence of the AD08 protein (rFnBPBCC1N2N3) (domain or fragment)
- Kd [1]: 49.1 µM

B1: recombinant ClfB N2N3 subdomains with the sequence of the AD08 protein (rClfBCC1N2N3) (domain or fragment)
chain: AEPVVNAADAKGTNVNDKVTAKDFQLEKTTFDPNQSGNTFMAANFTVTGQVKSGDYFTAKLPDSVTGNGDVDYSNSNNTMPIADIVNDKNEVVAKATYDILTKTYTFVFTDYVNDKQNINGKFSLPLFTDRAKAPKSGTYDANINIADEMFNNKITYNYSSPIAGIDKPNGANISSQIIGVDTASGQNTYKQTVFVNPKQRVLGNTWVYIKGYQDKIEESSGKVSATDTKLRIFEVNDTSKLSDSYYADPNDSNLKEVTDQFKDKITYKYQNVASINFGDINKTYVVLVEGHYDKTGKNLKTQVIQENVDPATGKDYSIFGWNNENVVRYGGGSADGDSAVN
- Kd [2]: 44.6 µM
